According to the nanobody polyreactivity screen of Harvey et al. (2022):

Assay: yeast display, Sf9 membrane polyspecificity reagent, FACS + sequencing; frameworks hold sequencing errors
In short: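 Nanobodies from a synthetic yeast display library (Saccharomyces cerevisiae BJ5465), induced 36–48 hours with galactose, were stained 1 hour at 4 °C with 10% biotinylated, detergent-solubilized Sf9 membrane reagent, enriched on streptavidin microbeads, then FACS-sorted. Anti-HA (expression) and streptavidin (reagent binding) fluorescence set low and high (top ~1%) gates. Polyreactivity labels come from the gate of origin. Genes were colony-PCR amplified, MiSeq 2 × 250 sequenced and filtered by CDR length.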

Row | Sequence | polyreactivity (PSR sort gate)
1 | QVQLVESGGGLVQAGGSLRLSCAASGRIFRVYAMGWYRQAPGKERELVAAISWSGGRTYYADSVKGRFTISRDNAKNTVYLQMNSLKPEDTAVYYCAAERGGPTYYSGGDYDYWGQGTQVTVSS | high polyreactivity
2 | QVQLVESGGGLVQAGGSLRLSCAASGIIFRGYAMGWYRQAPGKERELVASITRRGGSTRYADSVKGRFTISRDNAKNTVYLQMNSLKPEDTAVYYCAAVRVHTDRYNYWGQGTQVTVSS | high polyreactivity
3 | QVQLVESGGGLVLAGGSLRLSCAASGSTFYAHAMGWYRQARGKERELVAAITSGGSTNYADSVKGRFTISRDNAKNTVNLQINSLKPEDTAVYYCATPVNRERHAEDYWGQGTQVTVSS | low polyreactivity
4 | QVQLVESGGGLVQAGGSLRLSCAASGRTFAGYVMGWYRQAPGKERELVAAISTSGGSTRYADSVKGRFTISRDNAKNTVYLQMNSLKPEDTAVYYCAKLLYLGRWRFPAGYNHWGQGTQVTVSS | high polyreactivity
5 | QVHLVESGGRLVQAGGSLRLICAASGRIFFTYAMGWYRQAPGKDRELVASITGSGGSTYYADSVKGSFTISRDNAKNTVYLQMNRLKPEDTAVYYCAAALFRRQLYRKFYYWGQGTQVTVSS | low polyreactivity
6 | QVQLVESGGGLVQAGGSLRLSCAASGSIFWRNMGWYRQAPGKERELVAAISYGSVSTYYADSVKGRFTISRDNAKNTVYLQMNSLKPEDTAVYYCAATLPGWYNEHDSWGLGTQVTVSS | low polyreactivity
7 | PVQLVESGGGLVQAGGSLRLSCAASGYTFSYNAMGWYRQAPGKERELVAAIYRGGRTYYADSVKGRFTISRDNAKNTVYLQMNSLKPEDTAVYYCAAKRWTTKNGFYEYPYYYWGQGTQVTVSS | high polyreactivity
8 | QVQLVESGGGLVQAGGSLRLSCAASGSIVTANAMAWYRPAPGKERELVAAITTSGTSTYYADSVKGRFTLSRDNAKNTVYLQMNSLKPEDTSVYYCNADKFYRAGSELDYWGQGTQVTVSS | high polyreactivity
9 | QVQLVESGGGLVQAGGSLRLSCAASGRIFSHYAMGLYREAPGKERELVAAITGSGGITYYADSVKGRFTISRDKSKNTVFLQMISLKPEDTAVYYCAADGLSKFDYLGQGTQVTVSS | low polyreactivity
10 | QVQLVESGGGLVQAGGSLRLSCAASGSIFGGYTMGWYRQAPGKERELVAAISRRGGNTYYADSVKGRFTISRDNAKNTVYLQMNSLKPEDTAVYYCAVRWPSARIPVKLDYWGQGTQVTVSS | high polyreactivity
11 | QVQLVESGGGLVQAGGSLRLSCADSGSIFGSYATGWYRQAPGKERELVAAITYSGTSTYYADSVKGRFTISRDTAKNTVYLQMNRLKPEDTAVYYCAKRHWFQYRRPDLGRFDYWGQGTQVTVSS | high polyreactivity
12 | QVQIVESGGGLFQAGGSLRLSCAASGLIFYSYAMGWYRQAPWKERELVAAISSGGGSTYYADSVKGRFTISRDNAKNTVYLQLNSLKPEDTAVYYCNRLYKYRTPDYDHWGQGTQVTVSS | high polyreactivity
13 | QVQLVESGGGLVQAGGSLRLSCAASGLTLPSYVMGCYRQAPGKERELVAAISNSGGSTYYADSVKGRFTISRDTAKNTVYLQMNSLKPEDTAVYYCAAVYGYLLYFLLLPFTRDDYWGQGTQVTVSS | high polyreactivity
14 | QVQLQESGGGLVQAGGSLRLSCAASGSIIEELDMAWYRQAPGKEREFVAAIGTGSTTYYADSVKGRFTSSRDNAKNTVYLQMNSLKPEDTAVYYCAVTYSVYLPFRYWGQGTQVTVSS | high polyreactivity
15 | QVQLVESGGGLVQAGGSLRLSCAASGSIFGYYAMGWYRQAPGKERELVAAIRVSGGRTYYADSVKGRFTISRDNAKNTVYLQMNSLKPEDTAVYYCAKSLIPAYEYWGQGTQVTVSS | high polyreactivity
16 | QVQLVDSGGGLVQAGGSLRLSCAASGSTFRRNAMGWYRQAPGKERELVAAITSSGGGSTYYADSVKGRFTISRDNAKNSVYLQMNSLKPEDSAVYYCAKDFWYRSYDYWGQGTQVTVSS | low polyreactivity
17 | QVQLVESGGGLVQAGGSLRLSCAASGRTFGRYAKGWSRQAPGKERELVAAISYSTDSTYYADSVKGRFTISRDNAKNTDYLQMNSLKPEYTAVYYCATDSVNVGSYVGDKHDYWGHGTQVTVSS | low polyreactivity
18 | QVQLVESGGGLVQAGGSLRLSCAASGSTFSYNAMGWYRQAPGKERELVATISNTDSTNYADSVKGRFTISRDNAKNTVYLQMNSLKPEVTAVYYCAVVSARIDYEYWGQGTQVTVSS | low polyreactivity
19 | QVQLVESGGGLVQAGGSLRLSCAASGFTFENYAMGWYRQAPGKERELVAAITRTGGITYYADSVKGRFTISRDNAKNTVYLQLNSLKPEDTAVYYCDADDTWTRPKNYDRYDYWGQGTQVTVSS | low polyreactivity
20 | QVQLVESGGGLVQAVGSLRLSCAASGRTIAGYTMGWYRQARGQERELVAAISGRGGSTYYADSVKGRYTISRDNAKNTVYLQMNSLKPEDTAVYYCAAYTQGYWGRGRYGYCGQGTQVTVSS | high polyreactivity
21 | QVQLVESGGGLVQAGGSLRLSCAASGRTFTRYVMGWYRQAPGKESELVAVISSGGRTYYADSVKGRFTISRDNAKNTVYLQMNSLKPEDTAVYYCAAVTHPAWAVEYDYWGQGTQVTVSS | high polyreactivity
22 | QVQLVESGGGLVQAGGSLRLSCAASGRTLSWYAMGWYRQAPGKERELVAAISYRGVSTYYADSVKGRFTISRDNAKNTVYLQMNSLNPEDTAVYYCAAESWYYSYIVEMEYWGQGTQVTVSS | high polyreactivity

Row | Sequence | polyreactivity (PSR sort gate)
23 | QVQLVESGGGLVQAGGSLRLSCASSGSIFAWNAMGWYRQTPGKERELVAAINSGGGTYYADSVKGRFTISRDNAKNTVYSQMNSLIPEDTAVYYCAAGRLSHRYRYNYWGQGTQVTVSS | high polyreactivity
24 | QVQLVESGGGLVQAGGSLRLICAASGSIFYGYAMGWYRPAPGKERELVAAISYSGDRTYYADSVKGRFTISRDNAKNSVYLQMNSLKPEDTAVYYCAAQRRYGDDYWGQGTQVTVSS | high polyreactivity
25 | QVQLVESGGGLVQAGGSLRLSCAASGRIFQYNAMGWYRQAPGKERELVAAISNSDSTNYADSVKGRFTISRDNAKNTDYLQLNRVKPEDTAVYYCARRYYFYRWVIPDYDYWGQGTQVTVSS | low polyreactivity
26 | QVQLVESGGGLVQAGVSLRLSCAASGSIFTQYAMGWSRQAPGKERELVAAISWSGARTYYADSVKGRFTISRDNAKNTVYIQMNSLKPEDTAVYYWAADIIRPVTVDYWGQGTQVTVSS | high polyreactivity
27 | QVQLVESGGGLVQAGGSLRLSCAASGSIFVGNAMGWYRQAPGKERELVATISWSGGSTYYADSVKGRFTISRDNAKNTVYLQMNSLKPEDTAVYYCAKTPYRRYRYGGYTYRTYDYWGQGTQVTVSS | low polyreactivity
28 | QVQLVESGGGLVQAGGSLRLSCAASGRTLFTIAMGWYRQAPGKERELLAAISIGGTTYYADSVKGRFTISRDYAKNTVYLQMNSLKPEDTAVYYCNKVRRFHSEYGYWGQGTQVTVSS | high polyreactivity
29 | QVQLVESGGGLVQAGGSLRLSCAASGFTFPVNAMGWYRQAPGKERELVAAITKRGGGTYYADSVKGRFTISRDNAKNTVYLQMNSLKPEDTAVYYCAARSFWPYYGGDYDYWGQGTQVTVSS | high polyreactivity
30 | QVQIVESGGGLVQAGGSLRLSCAASGSTLYAYAMGWYRQAPGKERELVAAIRTGGSTYYADSVKGRFTISRDNAKNTVYLQMNSLKPEDTAVYYCADDHGYQYGYWGQATQVTVSS | low polyreactivity
31 | QVQLVESGGGLVQAGGSLRLSCAASGFIFYFYAMGWYRQAPGKERELVAAISYNGGSTYYADSVKGRFTISRDNAKNTVYLQMNSLKPEDTAVYYCNAVRNYAWGKMYSWGQGTQVTVSS | high polyreactivity
32 | QVQLVESGGGLVQAGGSLRLSCAASGSIFGFNAMGWYRQAPGKERELVAAISGRGTGTYYADSVKGRFTISRDNAKNTVYLQMNSLKPEDTAVYYCYTYYYWGQGTQVTVSS | high polyreactivity
33 | KVQLVESGGGLVQAGGSLRLSCAASGRTFVYYAMGWYRQAPGKERELVAAISSGGSTNYADSVKGRFTISRDNAKNTVYLQMNSLKPEDTAVYYCNADWGFPDVKETGVRFDYWGQGTQVTVSS | low polyreactivity
34 | QVQLVESGGGLVQAGCSLRLSCAASGRTFYYNAMGWYRQAPGKERELVAAITRSGSSTYYADSVKGRFTISRDNAKNTVYLQMNSLKPEDTAVYYCAARVGDAYYYWGQGTQVTVSS | high polyreactivity
35 | QVQLVESGGGLVQAGGSLRLSCAASGRIFGWYTMGWYRQAPGKERELVADINFGGSTYYADSVKGRFTISRDNAKNTVYLQMNSLTPEDTAVYYCNADYSVYIIADEYDYCGQGTQVTVSS | low polyreactivity
36 | QVQLVESGGGLVQAGGSLRLSCAASGRTLTIYAMGWYRPAPGKERELVAAINWSGGGTYYADSVKGRFTISRDNAKNTVYLQMNRLKPEDTAVYYCAAGRSFRGSYWYEYWGQGTQVTVSS | high polyreactivity
37 | QVQLVESGGGLVQAGGSLRLSCAASGFIFHRYVMGWSRQAPGKERELVAAISSGGSTNYADSVKGRFTISRDNAKNTVYLQMNSLKPEDTAVYYCAADGFYYRNWGRFRYYYWGQGTQVTVSS | low polyreactivity
38 | QVQLVESGGGLVQAGGSLRLSCAASGIIFSPYAMGWYRQAPVKERELVAAISYSGGSTYYADSVKGRFTISRDNAKNTVYLQMNSLKPEDTAVYYCAVVYSYYLAVLGYWDYDYWGQGTQVTVSS | low polyreactivity
39 | QVQLVESGGGLVQAGGSLRLSCAASGRTFWRNAMGWYRQAPGKERELVAAINSGGRTYYADSVKGRFTISRDNAKNTVYLQMNSLKPEDTAVYYCAVYVHRFLDGRVRSYRGDYWGQGTQVTVSW | high polyreactivity
40 | QVQLVESGGGIVQAGGSLRLSCAASGITFPLYVMGWYRQAPGKERELVAAISASGGSTYADSVKGRFTISRDNAKNTVYLQMNSLKPEDTAVYYCNADVYVGYDYDYWGQGTQVTVSS | low polyreactivity
41 | QVQLVESGGGLFQAGGSLRLSCAASGRIFAYYTMGWYIQAPGKERELVAAITKRGGSTYYADSVKGRFTISRDNAKNTFYLQMNSLKPEDTAVYYCAADPNRYRYRSPHDYWGQGTQVTVSS | high polyreactivity
42 | QVQLVESGGGLVQAGGSLRLSCAASGSICGSYAMGWYRQAPGKERELVAAITRSGSRTYYADSVKGRFTISRDNAKNTVYLQMISLKPEDTAVYFCATGYPGGFDYWGQGTQVTVSS | high polyreactivity
43 | QVQLVESGGGLVQAGGSLRLICAASGNIFHRYAMGWYRQAPGKERELVAAINGGGGSTYYADSVKGRFTISRDNAKNTVYLQMNSLKPEDTAVYSCAAVVQNGVHIYDYWGQGTQVTVSS | high polyreactivity
